Test results as given in publication PMC9570212, “PAUF Induces Migration of Human Pancreatic Cancer Cells Exclusively via the TLR4/MyD88/NF-κB Signaling Pathway” (International Journal of Molecular Sciences, 2022).

Biological target: human TLR4 overexpressed in Panc-1 cells (Panc-1_TLR4^OE) (human, UniProt O00206 24-839)
Assay: cell-based or functional assay

Chain of human TLR4 overexpressed in Panc-1 cells (Panc-1_TLR4^OE) (O00206 24-839): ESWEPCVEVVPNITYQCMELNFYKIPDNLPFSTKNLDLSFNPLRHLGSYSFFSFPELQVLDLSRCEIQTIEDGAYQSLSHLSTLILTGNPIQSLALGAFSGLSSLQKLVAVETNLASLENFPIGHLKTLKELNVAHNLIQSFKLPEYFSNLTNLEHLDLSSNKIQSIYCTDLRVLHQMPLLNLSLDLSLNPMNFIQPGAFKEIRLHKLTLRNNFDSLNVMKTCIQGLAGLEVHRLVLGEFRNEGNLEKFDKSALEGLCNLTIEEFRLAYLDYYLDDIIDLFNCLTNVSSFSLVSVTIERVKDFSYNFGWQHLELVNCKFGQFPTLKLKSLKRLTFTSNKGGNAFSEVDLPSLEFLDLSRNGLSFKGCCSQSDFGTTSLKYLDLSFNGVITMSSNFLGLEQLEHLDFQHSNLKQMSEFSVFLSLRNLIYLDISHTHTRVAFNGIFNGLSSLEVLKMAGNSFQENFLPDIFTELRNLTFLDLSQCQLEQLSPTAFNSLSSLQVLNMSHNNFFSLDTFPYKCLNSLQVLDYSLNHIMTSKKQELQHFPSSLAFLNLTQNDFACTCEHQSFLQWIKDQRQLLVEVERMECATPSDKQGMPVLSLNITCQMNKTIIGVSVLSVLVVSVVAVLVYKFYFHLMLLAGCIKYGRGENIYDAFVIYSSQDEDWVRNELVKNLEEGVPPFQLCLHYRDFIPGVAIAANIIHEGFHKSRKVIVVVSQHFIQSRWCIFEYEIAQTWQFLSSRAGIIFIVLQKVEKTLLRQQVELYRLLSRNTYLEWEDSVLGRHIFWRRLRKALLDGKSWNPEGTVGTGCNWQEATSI

- NF-κB dual-luciferase reporter activity in Panc-1 cells transiently overexpressing TLR4 (rPAUF 0.1 µg/mL), relative to Panc-1_trans Ctrl cells; no effect of rPAUF in control cells: 4.6 fold
B1: recombinant pancreatic adenocarcinoma up-regulated factor (PAUF) (ligand, UniProt Q96DA0 17-172, looked up)
chain: GKMYGPGGGKYFSTTEDYDHEITGLRVSVGLLLVKSVQVKLGDSWDVKLGALGGNTQEVTLQPGEYITKVFVAFQAFLRGMVMYTSKDRYFYFGKLDGQISSAYPSQEGQVLVGIYGQYQLLGIKSIGFEWNYPLEEPTTEPPVNLTYSANSPVGR
